What all share (assay): cell-based or functional assay
Assay [1] deals with HIV-1 98CN009 envelope glycoprotein (Env) on pseudovirus (HIV-1).
In assay [2] the target is HIV-1 MGRM-A-013 envelope glycoprotein (Env) (HIV-1).
In assay [3] the target is HIV-1 JRCSF envelope glycoprotein (Env) on pseudovirus (HIV-1).
The target in assay [4] is HIV-1 Env of isolate MGRM-G-024 (subtype G) (HIV-1).
The target of assay [5] is HIV-1 92UG031 envelope glycoprotein (Env) (HIV-1).
Assay [6] has as its target HIV-1 MGRM-C-024 Env (HIV-1).
For assay [7], the target named is HIV-1 Env of isolate MGRM-G-019 (subtype G) (HIV-1).
Assay [8] deals with HIV-1 Env of isolate 92UG046 (HIV-1).
Assay [9] concerns the target HIV-1 92RW020 envelope glycoprotein (Env) (HIV-1).
For assay [10], the target named is HIV-1 MGRM-C-023 Env (HIV-1).
Assay [11] has as its target HIV-1 Env of pseudovirus SC422661.8 (Acute), clade B (HIV-1).
Assay [12] concerns the target HIV-1 Env of isolate MGRM-D-013 (HIV-1).
Assay [13] deals with HIV-1 JR-CSF envelope protein (Env) on pseudovirus (HIV-1) (UniProt P20871).
In assay [14] the target is HIV-1 Env of isolate 98CN006 (subtype CRF08 BC) (HIV-1).
The target in assay [15] is HIV-1 Env of isolate 92UG114 (subtype D) (HIV-1).
The target of assay [16] is HIV-1 MGRM-Chronic-B-008 Env (pseudovirus) (HIV-1).
Assay [17] deals with HIV-1 Env of isolate MGRM-C-023 (pseudovirus) (HIV-1 isolate MGRM-C-023, subtype C).
In assay [18] the target is HIV-1 93IN905 Env (pseudovirus) (HIV-1).
The target in assay [19] is HIV-1 Env of isolate MG RM-D-024 (subtype D) (HIV-1).
Assay [20] has as its target HIV-1 MGRM-Chronic-B-024 Env (pseudovirus) (HIV-1).
Assay [21] concerns the target HIV-1 Env of isolate MG RM-D-012 (subtype D) (HIV-1).
For assay [22], the target named is HIV-1 APV_13 Env (pseudovirus) (HIV-1).
Assay [23] concerns the target HIV-1 Env of isolate 97ZA012 (pseudovirus) (HIV-1 isolate 97ZA012, subtype C).
Assay [24] addresses HIV-1 APV_17 Env (pseudovirus) (HIV-1).
The target in assay [25] is HIV-1 TRO.11 Env (pseudovirus) (HIV-1).
Assay [26] has as its target HIV-1 TRJ04551.58 Env (pseudovirus) (HIV-1).
Assay [27] concerns the target HIV-1 Env of isolate MG RM-D-003 (subtype D) (HIV-1).
The target of assay [28] is HIV-1 JR-CSF Env V120A (HIV-1 (isolate JR-CSF)) (UniProt P20871).
The target of assay [29] is HIV-1 JR-CSF Env D113A (HIV-1 (isolate JR-CSF)) (UniProt P20871).
The target in assay [30] is HIV-1 JR-CSF Env R166A (HIV-1 (isolate JR-CSF)) (UniProt P20871).
Assay [31] concerns the target HIV-1 Env of isolate MGRM-G-025 (subtype G) (HIV-1).
The target of assay [32] is HIV-1 Env of isolate MGRM-D-001 (HIV-1).
For assay [33], the target named is HIV-1 Env of isolate MGRM-D-018 (HIV-1).
Assay [34] has as its target HIV-1 Env of isolate 98CN006 (HIV-1).
In assay [35] the target is HIV-1 Env of isolate MGRM-Chronic-B-008 (HIV-1).
Assay [36] deals with HIV-1 Env of isolate MGRM-Chronic-B-004 (HIV-1).

For orientation: IC50 means the concentration that inhibits the measured activity by half. By IC80 is commonly meant the concentration at which the effect reaches the 80% level. A low value points to greater potency. The IC90 is the concentration needed for an effect of 90%. A low value points to an effect from little substance. As usually defined, the IC95 is the concentration at which the effect reaches the 95% level. Higher therefore signals a need for much substance.

Sequence of PGT-142 (4995_E20) (antibody) (VH): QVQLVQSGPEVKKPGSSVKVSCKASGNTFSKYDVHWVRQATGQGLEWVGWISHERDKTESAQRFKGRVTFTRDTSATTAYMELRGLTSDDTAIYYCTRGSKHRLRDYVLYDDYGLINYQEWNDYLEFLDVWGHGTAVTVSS
Sequence of PGT-142 (4995_E20) (antibody) (VL): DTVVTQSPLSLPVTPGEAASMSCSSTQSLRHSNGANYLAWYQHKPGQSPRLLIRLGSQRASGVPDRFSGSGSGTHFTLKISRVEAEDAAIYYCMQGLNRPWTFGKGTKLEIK
Sequence of PGT-141 (4964_G22; 4993_K13) (antibody) (VH): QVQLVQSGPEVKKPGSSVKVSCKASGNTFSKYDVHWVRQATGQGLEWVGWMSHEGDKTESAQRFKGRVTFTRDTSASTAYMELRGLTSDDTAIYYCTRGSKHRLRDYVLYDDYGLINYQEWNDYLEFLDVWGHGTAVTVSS
Sequence of PGT-143 (4980_N08) (antibody) (VH): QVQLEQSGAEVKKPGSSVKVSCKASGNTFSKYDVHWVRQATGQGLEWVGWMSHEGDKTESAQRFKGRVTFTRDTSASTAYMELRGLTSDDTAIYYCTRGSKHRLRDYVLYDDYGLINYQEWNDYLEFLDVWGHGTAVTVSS
Sequence of PGT-143 (4980_N08) (antibody) (VL): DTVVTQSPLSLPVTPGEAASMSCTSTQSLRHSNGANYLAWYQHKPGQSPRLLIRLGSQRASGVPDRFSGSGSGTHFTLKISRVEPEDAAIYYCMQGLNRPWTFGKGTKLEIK
Sequence of PGT-144 (4970_K22) (antibody) (VH): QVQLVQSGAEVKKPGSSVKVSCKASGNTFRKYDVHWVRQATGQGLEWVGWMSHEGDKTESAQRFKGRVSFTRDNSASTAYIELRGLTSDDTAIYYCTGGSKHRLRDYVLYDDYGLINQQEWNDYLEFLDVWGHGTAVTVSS
Sequence of PGT-144 (4970_K22) (antibody) (VL): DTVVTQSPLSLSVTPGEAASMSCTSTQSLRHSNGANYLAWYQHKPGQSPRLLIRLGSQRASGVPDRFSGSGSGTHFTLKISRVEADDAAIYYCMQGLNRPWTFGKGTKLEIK

For the substance 1496_C09 (PG9) (TCN-109) (antibody), the IC50 (µg/ml), pseudovirus neutralization was found to be 1.07 µg/mL in assay [1]; 0.16 µg/mL in [2]; 3.08 µg/mL in assay [5]; 0.08 µg/mL in assay [9]; 0.79 µg/mL in [11]. The substance further had an IC90 (pseudovirus neutralization) in [3] of less than 0.0025 µg/mL. Besides, the results for the neutralization IC50 in [4], in assay [7] and in assay [13] were 0.163 µg/mL, 14.6 µg/mL and less than 0.0025 µg/mL, respectively. Also, the results for the IC50 in assay [6] and in assay [10] were 0.22 µg/mL and 0.51 µg/mL, respectively. Further, the IC50 (µg/mL), pseudovirus neutralization in [8] is 1.86 µg/mL; in [12], 0.021 µg/mL. The IC50 neutralization in assay [9] stood at 0.161 µg/mL.
Turning to 4838_L06 (PGT-121) (antibody), the IC50 (µg/mL), pseudovirus neutralization was 0.01 µg/mL in assay [14]; 0.004 µg/mL in assay [15]; 0.038 µg/mL in assay [19]; more than 50 µg/mL in assay [21]; 10.7 µg/mL in [27]. The IC50, pseudovirus neutralization came to 0.007 µg/mL in [16]; 0.005 µg/mL in [18]; 0.195 µg/mL in assay [20]; 0.251 µg/mL in assay [22]; 0.066 µg/mL in [24]; 0.008 µg/mL in [25]. Also, in [26], the IC50, pseudovirus neutralization is 7.09 µg/mL. Moreover, the IC50 (µg/mL) neutralization in assay [17] came to 0.017 µg/mL; in assay [23] it was 0.002 µg/mL. In addition, the neutralization IC80 in assay [18] came out at 0.0302 µg/mL. The substance further displayed a neutralization IC90 in assay [18] of 0.0645 µg/mL.
As for 4858_P08 (PGT-123) (antibody), the IC50 (µg/mL), pseudovirus neutralization in assay [14] is 0.008 µg/mL; in assay [15], 0.005 µg/mL; in assay [19], 0.023 µg/mL; in [21], more than 50 µg/mL; in assay [27], 3.74 µg/mL. For the same substance, the Fold IC50 increase relative to wild-type in assay [28] is 1.1 fold; in assay [29], 1.1 fold; in assay [30], 0.9 fold. In addition, the IC50, pseudovirus neutralization in assay [16] was 0.01 µg/mL; in [18] it was 0.004 µg/mL; in [20], more than 50 µg/mL; in assay [22], 0.138 µg/mL; in [24], 0.114 µg/mL; in assay [25] it was 0.008 µg/mL. This substance also had an IC50, pseudovirus neutralization in [26] of 16.9 µg/mL. Further, the values for the IC50 (µg/mL) neutralization in [17] and in [23] were 0.011 µg/mL and 0.002 µg/mL, respectively.
With 4877_D15 (PGT-122) (antibody), the IC50 (µg/mL), pseudovirus neutralization in [14] was 0.021 µg/mL; in assay [15] it was 0.011 µg/mL; in [19] it was 0.185 µg/mL; in [21] it was more than 50 µg/mL; in [27] it was more than 50 µg/mL. In addition, the IC50, pseudovirus neutralization in assay [16] was determined as 0.017 µg/mL; in assay [18], 0.013 µg/mL; in [20], 2.31 µg/mL; in assay [22], 0.778 µg/mL; in assay [24], 0.25 µg/mL; in assay [25], 0.011 µg/mL. Further, the IC50, pseudovirus neutralization in [26] was more than 50 µg/mL. In addition, the figures for the IC50 (µg/mL) neutralization in assay [17] and in [23] were 0.027 µg/mL and 0.004 µg/mL, respectively.
On to 5123_A06 (PGT-125) (antibody), for which the IC50 (µg/mL), pseudovirus neutralization in [14] was 0.201 µg/mL; in assay [15], 0.349 µg/mL; in assay [19], more than 50 µg/mL; in [21], more than 50 µg/mL; in assay [27], 0.065 µg/mL. Also, the Fold IC50 increase relative to wild-type in assay [28] worked out at 0.5 fold; in assay [29], 1.1 fold; in assay [30], 1.5 fold. The IC50, pseudovirus neutralization is more than 50 µg/mL in assay [16]; 0.009 µg/mL in assay [18]; more than 50 µg/mL in [20]; 0.007 µg/mL in [22]; 8.06 µg/mL in assay [24]; 0.111 µg/mL in assay [25]. The substance also displayed an IC50, pseudovirus neutralization in assay [26] of 0.019 µg/mL. Besides, the IC50 (µg/mL) neutralization was found to be 1.31 µg/mL in assay [17] and 2.46 µg/mL in assay [23].
In the case of 5141_B17 (PGT-126) (antibody), the IC50 (µg/mL), pseudovirus neutralization is 0.046 µg/mL in [14]; 0.038 µg/mL in assay [15]; 0.376 µg/mL in assay [19]; more than 50 µg/mL in assay [21]; 0.021 µg/mL in assay [27]. Besides, the Fold IC50 increase relative to wild-type in assay [28] amounted to 0.7 fold; in assay [29], 1.2 fold; in assay [30], 1 fold. Besides, the IC50, pseudovirus neutralization is 5.89 µg/mL in assay [16]; 0.015 µg/mL in assay [18]; more than 50 µg/mL in [20]; 0.012 µg/mL in assay [22]; 0.353 µg/mL in assay [24]; 0.041 µg/mL in [25]. The substance further registered an IC50, pseudovirus neutralization in [26] of 0.025 µg/mL. Also, the IC50 (µg/mL) neutralization in assay [17] stood at 0.065 µg/mL; in [23] it was 0.042 µg/mL. In [18], the IC50 was 0.0194 µg/mL. The substance further displayed an IC80 in assay [18] of 0.0676 µg/mL. Also, the IC90 in [18] came to 0.14 µg/mL. In assay [18], this substance had an IC95 of 0.275 µg/mL.
Regarding PGT-121 (antibody), in [9], the IC50 neutralization came to 0.0063 µg/mL.
With PGT-122 (antibody), the IC50 neutralization in assay [9] was found to be 0.0072 µg/mL.
As to PGT-141 (4964_G22; 4993_K13) (antibody), the values for the neutralization IC50 in [31], in [4] and in [7] were more than 50 µg/mL, 0.051 µg/mL and 20.3 µg/mL, respectively.
Consider PGT-142 (4995_E20) (antibody), for which the figures for the neutralization IC50 in [31], in assay [4] and in assay [7] were more than 50 µg/mL, 0.054 µg/mL and 5.95 µg/mL, respectively.
In the same order, the values of PGT-143 (4980_N08) (antibody) are more than 50 µg/mL, 0.048 µg/mL and 4.77 µg/mL.
Regarding PGT-144 (4970_K22) (antibody), the neutralization IC50 was more than 50 µg/mL in [31], 7.92 µg/mL in assay [4] and more than 50 µg/mL in assay [7].
With PGV04 (antibody), the IC50 (µg/mL), pseudovirus neutralization in assay [32] is more than 50 µg/mL; in assay [33], 17.5 µg/mL; in assay [8], 22.4 µg/mL; in [12], 0.088 µg/mL. Moreover, the neutralization IC50 is 1.61 µg/mL in assay [31], 0.033 µg/mL in assay [4] and 0.027 µg/mL in assay [7]. Moreover, the IC50, pseudovirus neutralization in assay [34] is 1.32 µg/mL.
On to VRC01 (antibody), for which the neutralization IC50 in assay [31] came out at 0.292 µg/mL; in assay [4], 0.025 µg/mL; in assay [7], 0.06 µg/mL. Also, the IC50 was found to be 0.155 µg/mL in [35] and 0.055 µg/mL in [36]. Moreover, the IC50, pseudovirus neutralization in [33] was more than 50 µg/mL; in assay [12] it was 0.087 µg/mL.
